Substrate: N[C@@H](CC(=O)O)C(=O)O
Assay: GLOX/HRP-coupled enzyme kinetics
Assay type: biochemical, Homo sapiens
Settings: PLP

B1: GOT1 (glutamate oxaloacetate transaminase 1, aspartate aminotransferase 1) (Homo sapiens) (protein)
chain: APPSVFAEVPQAQPVLVFKLTADFREDPDPRKVNLGVGAYRTDDCHPWVLPVVKKVEQKIANDNSLNHEYLPILGLAEFRSCASRLALGDDSPALKEKRVGGVQSLGGTGALRIGADFLARWYNGTNNKNTPVYVSSPTWENHNAVFSAAGFKDIRSYRYWDAEKRGLDLQGFLNDLENAPEFSIVVLHACAHNPTGIDPTPEQWKQIASVMKHRFLFPFFDSAYQGFASGNLERDAWAIRYFVSEGFEFFCAQSFSKNFGLYNERVGNLTVVGKEPESILQVLSQMEKIVRITWSNPPAQGARIVASTLSNPELFEEWTGNVKTMADRILTMRSELRARLEALKTPGTWNHITDQIGMFSFTGLNPKQVEYLVNEKHIYLLPSGRINVSGLTTKNLDYVATSIHEAVTKIQ
Km: 4 mM

From article PMC6487875
